Data set [1] in a line: Solubility of PTH as a function of pH. It is filed as physicochemical. The source says:
While not being bound by any theory, it is believed that this phenomena was due to the salts (e.g., MW ˜60) in the PTH solution diffusing into the physiological solution at a rate that exceeded the rate of diffusion of the PTH (e.g., MW ˜4000) due, for example, to the molecular weight (MW) dependence of diffusion rate, to such an extent that the pH of the PTH solution increased to a point exceeding that required to keep the PTH in solution. (For example, at pH 3, the PTH has a solubility of about 100 μg/ml and at pH 7, the PTH has a solubility of about 20 μg/ml.)

In the next data set the test system is skeletal homeostasis. The conditions noted are these: cited from earlier work.

The text below walks through data of US8277440B2, “Implantable device for controlled, extended delivery of parathyroid hormone” (MicroCHIPS, Inc., priority 2002, dated 2012).

Take parathyroid hormone [PTH]: the solubility result in data set [1] (pH 3) is given as “about 100 μg/ml”. Besides, in data set [1] (pH 7), the solubility result is given as “about 20 μg/ml”. In the data set on skeletal homeostasis (daily dose given as one single injection), the bone volume result is given as “dose dependent increase”. In the data set with skeletal homeostasis (in vivo), the “effect on serum calcium” value is listed as “dose dependent increase” and the “effect on serum calcium levels” value is listed as “practically no effect”. Besides, in the data set on skeletal homeostasis (same daily dose by continuous infusion with subcutaneous mini-osmotic pump), the result on bone is listed as “bone loss”.
